Measured values published in article PMC9610207 (Viruses, 2022).
No end group written: not given here.

Target: SNX27 PDZ (amino acids 740–141) (human, UniProt Q96L92 43-136)
Assay: fluorescence polarisation
Conditions: both partners purified

With SADAQSFLNGFAV (also: FITC-labeled) [FITC-labeled peptide NSP11 4393-4405 of SARS-CoV-2] the Kd was > 400 µM.
